From US20150246946A1, “PEPTIDES AND METHODS FOR TREATING CANCER” (AGENCY FOR SCIENCE, TECHNOLOGY AND RESEARCH, priority 2012, published 2015)
Where two headings read alike, the source gives them in different places. Where a SMILES comes first, the peptide text is derived from it. Bridges are numbered along the chain shown (N, C = ends). [ ]: non-standard residue; d: D form. Trp(6-Cl) = N[C@@H](Cc1c[nH]c2cc(Cl)ccc12)C(=O)O; dTrp(6-Cl) = N[C@H](Cc1c[nH]c2cc(Cl)ccc12)C(=O)O; R8 = C=CCCCCCC[C@@](C)(N)C(=O)O; S5 = C=CCCC[C@](C)(N)C(=O)O

Key:
p53 null thymocytes = assay: cell viability in mouse thymocytes, p53 null; format: cell-based, mice; details: high doses, 24 hours, annexin V/PI
Mdm2 (1-125) [1] = biological target: T1, Mdm2 (1-125) (Homo sapiens, UniProt Q00987); assay: competitive fluorescence polarization/anisotropy, apparent Kd against Mdm2; format: binding
T1 construct: Mdm2 (1-125) and Mdm4 (1-125) were ligated into the GST fusion expression vector pGEX-6P-1; GST (N, cleaved yes); made in house; host or cells: E. coli BL21 DE3
T1 sequence (Q00987 1-125): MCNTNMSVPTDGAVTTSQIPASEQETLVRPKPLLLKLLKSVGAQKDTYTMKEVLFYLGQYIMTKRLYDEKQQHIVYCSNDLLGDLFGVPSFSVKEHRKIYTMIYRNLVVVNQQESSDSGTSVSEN
Procedure: (§1) The cells expressing the GST fusion constructs were grown in LB medium at 37° C. to an OD600 of ˜0.6 and induction was started with 1 mM IPTG and carried out overnight at room temperature. Cells were harvested by centrifugation and the cell pellets were re-suspended in 50 mM Tris pH 8.0, 10% sucrose and were then sonicated. The sonicated sample was centrifuged for 60 mins at 17,000 g at 4° C. […] The column was then further washed by 6 volumes of wash buffer. Mdm2 and Mdm4 were then purified from the column by cleavage with Precission (GE Lifesciences) protease. 10 units of precission protease, in one column volume of PBS with 1 mM DTT buffer, were injected onto the column. The cleavage reaction was allowed to proceed overnight at 4° C. The cleaved protein was then eluted of the column with wash buffer. Protein fractions were analyzed with SDS page gel and concentrated using a Centricon (3.5 kDa MWCO) concentrator, Millipore. Mdm2 and Mdm4 protein samples were then dialyzed into a buffer solution containing 20 mM Bis-Tris, pH 6.5, 0.05M NaCl with 1 mM DTT and loaded onto a monoS column pre-equilibrated in buffer A (20 mM Bis-Tris, pH 6.5, 1 mM DTT). The column was then washed in 6 column volumes of buffer A and bound protein was eluted with a linear gradient of 1M NaCL over 25 column volumes. Protein fractions were analyzed with SDS page gel and concentrated using a Centricon (3.5 kDa MWCO) concentrator from Millipore.
(§2) Apparent Kd values were determined for a variety of molecules via competitive fluorescence anisotropy experiments. […] The competing molecules were then titrated against complex of the FAM labelled peptide and protein. Apparent Kd values were determined by fitting the experimental data to the equations shown below:
(§3) [L]st and [L]t denote labelled ligand and total unlabelled ligand input concentrations, respectively. Kd2 is the dissociation constant of the interaction between the unlabelled ligand and the protein. In all competitive types of experiments, it is assumed that [P]t>[L]st, otherwise considerable amounts of free labelled ligand would always be present and would interfere with measurements. […] The FAM-labelled peptide were dissolved in DMSO at 1 mM and diluted into experimental buffer. Readings were carried out with a Envision Multilabel Reader (PerkinElmer). […] All titrations were carried out in triplicate. Curve-fitting was carried out using Prism 4.0 (GraphPad).

Mdm4 (1-125) [2] = biological target: T2, Mdm4 (1-125) (Homo sapiens, UniProt O15151); assay: competitive fluorescence polarization/anisotropy, apparent Kd against Mdm4; format: binding
T2 construct: Mdm4 (1-125) were ligated into the GST fusion expression vector pGEX-6P-1; GST (N, cleaved yes); made in house; host or cells: E. coli BL21 DE3
T2 sequence (O15151 1-125): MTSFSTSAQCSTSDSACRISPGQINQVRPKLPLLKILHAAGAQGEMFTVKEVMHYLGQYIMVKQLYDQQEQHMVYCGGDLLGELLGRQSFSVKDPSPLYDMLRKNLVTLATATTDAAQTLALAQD
Procedure: as §1, §2, §3

[3] = test system: p53 responsive LacZ reporter gene in T22 cell line; assay: T22 p53 β-galactosidase based reporter assay; format: cell-based, murine; details: 18 hours, DMEM with 10% FBS
Procedure: T22 cells, which were stably transfected with a p53 responsive […] reporter, were seeded into 96-well plate at a cell density of 8000 cells per well. […] Measurements were carried out using a Safire II multiplate reader (TECAN). Experiments were carried out independently twice.

Mdm2 (1-125) [4] = biological target: T3, Mdm2 (1-125) (human, UniProt Q00987 1-125); assay: apparent Kd, competitive fluorescence polarization; displacement of FAM-…-NH2 from Mdm2 (1-125)
T3 construct: range 1-125; also called Hdm2
T3 sequence (Q00987 1-125 limits assumed): as the sequence (Q00987 1-125) above

Mdm4 (1-125) [5] = biological target: T4, Mdm4 (1-125) (human, UniProt O15151 1-125); assay: apparent Kd, competitive fluorescence polarization; displacement of FAM-…-NH2 from Mdm4 (1-125)
T4 construct: range 1-125; also called MDMX; Hdm4
T4 sequence (looked up): T2 sequence (O15151 1-125)

Mdm2 (1-125) [6] = biological target: T3, Mdm2 (1-125); assay: apparent Kd, competitive fluorescence polarization; displacement of FAM-…-NH2 from Mdm2 (1-125); remark: listed apart in the source
Mdm4 (1-125) [7] = biological target: T4, Mdm4 (1-125); assay: apparent Kd, competitive fluorescence polarization; displacement of FAM-…-NH2 from Mdm4 (1-125); remark: listed apart in the source

COc1ccc(C2=N[C@@H](c3ccc(Cl)cc3)[C@@H](c3ccc(Cl)cc3)N2C(=O)N2CCNC(=O)C2)c(OC(C)C)c1 [nutlin, reference compound]
apoptosis in p53 null thymocytes (p53 null thymocytes): caused apoptosis in p53 null thymocytes

CC(=O)N[C@H](C(=O)N[C@@H](CO)C(=O)N[C@@H](Cc1ccccc1)C(=O)N[C@]1(C)CCCCCCC=CCCC[C@@](C)(C(N)=O)NC(=O)[C@H](CC(C)C)NC(=O)[C@H](CC(C)C)NC(=O)[C@H](CC(N)=O)NC(=O)[C@H](Cc2c[nH]c3ccccc23)NC(=O)[C@H](Cc2ccc(O)cc2)NC(=O)[C@H](CCC(=O)O)NC1=O)[C@@H](C)O [sMTide-01, Ac-^1TSFXEYWNLLX^11-NH2] (Ac-TSF[R8]EYWNLL[S5]-NH2; staple 4-11)
increase in Kd against Mdm2 in comparison to unstapled counterpart (Mdm2 (1-125) [1]; stapled vs unstapled peptide): approximately 2 fold | increase in Kd against Mdm4 in comparison to unstapled counterpart (Mdm4 (1-125) [2]; stapled vs unstapled peptide): 4 fold | p53 transcriptional activity in T22 p53 reporter assay [3]: little activity

CC(=O)N[C@H](C(=O)N[C@@H](CO)C(=O)N[C@@H](Cc1ccccc1)C(=O)N[C@]1(C)CCCCCCC=CCCC[C@@](C)(C(N)=O)NC(=O)[C@H](CC(C)C)NC(=O)[C@H](CC(C)C)NC(=O)[C@H](C)NC(=O)[C@@H](Cc2c[nH]c3cc(Cl)ccc23)NC(=O)[C@H](Cc2ccc(O)cc2)NC(=O)[C@H](CCC(=O)O)NC1=O)[C@@H](C)O [sMTide-02B, Ac-^1TSFXEY(D-6-Cl)WALLX^11-NH2]
Mdm4 Kd (Mdm4 (1-125) [2]; apparent Kd, competitive fluorescence polarization, Mdm4 75 nM, FAM peptide 50 nM): attenuated | p53 transcriptional activity in T22 p53 reporter assay [3]: negligible activity

CC(=O)N[C@@H](CO)C(=O)N[C@@H](Cc1ccccc1)C(=O)N[C@]1(C)CCCCCCC=CCCC[C@@](C)(C(N)=O)NC(=O)[C@H](CC(C)C)NC(=O)[C@H](CC(C)C)NC(=O)[C@H](C)NC(=O)[C@H](Cc2c[nH]c3ccccc23)NC(=O)[C@H](Cc2ccc(O)cc2)NC(=O)[C@H](CCC(=O)O)NC1=O [sMTide-04, Ac-^2SFXEYWALLX^11-NH2] (Ac-SF[R8]EYWALL[S5]-NH2; staple 3-10)
preference between Mdm2 and Mdm4 in binding (Mdm2 (1-125) [1]; comparison of apparent Kds): interacted more tightly with Mdm4 than with Mdm2

CC(=O)N[C@H](C(=O)N[C@@H](CO)C(=O)N[C@@H](Cc1ccccc1)C(=O)N[C@]1(C)CCCCCCC=CCCC[C@@](C)(C(N)=O)NC(=O)[C@H](CC(C)C)NC(=O)[C@H](CC(C)C)NC(=O)[C@H](Cc2ccccc2)NC(=O)[C@H](Cc2c[nH]c3ccccc23)NC(=O)[C@H](Cc2ccc(O)cc2)NC(=O)[C@H](CCC(=O)O)NC1=O)[C@@H](C)O [sMTide-07, Ac-^1TSFXEYWFLLX^11-NH2] (Ac-TSF[R8]EYWFLL[S5]-NH2; staple 4-11)
p53 transcriptional activity in T22 p53 reporter assay [3]: diminish the ability of sMTide-07 to induce p53, compared to sMTide-06

B1: sMTide-04 (peptide)
peptide: Ac-SF[R8]EYWALL[S5]-NH2
modifications: staple 3-10
SMILES: CC(=O)N[C@@H](CO)C(=O)N[C@@H](Cc1ccccc1)C(=O)N[C@]1(C)CCCCCCC=CCCC[C@@](C)(C(N)=O)NC(=O)[C@H](CC(C)C)NC(=O)[C@H](CC(C)C)NC(=O)[C@H](C)NC(=O)[C@H](Cc2c[nH]c3ccccc23)NC(=O)[C@H](Cc2ccc(O)cc2)NC(=O)[C@H](CCC(=O)O)NC1=O
notes: also called Ac-SFXEYWALLX-NH2
Kd (Mdm2 (1-125) [4]): 104 nM | Kd (Mdm4 (1-125) [5]): 63 nM

Ac-TSFAEYWNLLS-NH2 (Linear phage-derived peptide) [MTide-01]
Kd (Mdm2 (1-125) [6]): 46.3 nM | Kd (Mdm4 (1-125) [7]): 33.2 nM

B2: sMTide-05 (peptide)
peptide: Ac-TSF[R8]EYWKLL[S5]-NH2
modifications: staple 4-11
SMILES: CC(=O)N[C@H](C(=O)N[C@@H](CO)C(=O)N[C@@H](Cc1ccccc1)C(=O)N[C@]1(C)CCCCCCC=CCCC[C@@](C)(C(N)=O)NC(=O)[C@H](CC(C)C)NC(=O)[C@H](CC(C)C)NC(=O)[C@H](CCCCN)NC(=O)[C@H](Cc2c[nH]c3ccccc23)NC(=O)[C@H](Cc2ccc(O)cc2)NC(=O)[C@H](CCC(=O)O)NC1=O)[C@@H](C)O
notes: also called Ac-TSFXEYWKLLX-NH2
Kd (Mdm2 (1-125) [4]): 26.3 nM | Kd (Mdm4 (1-125) [5]): 29.9 nM

B3: sMTide-07 (peptide)
peptide: Ac-TSF[R8]EYWFLL[S5]-NH2
modifications: staple 4-11
SMILES: CC(=O)N[C@H](C(=O)N[C@@H](CO)C(=O)N[C@@H](Cc1ccccc1)C(=O)N[C@]1(C)CCCCCCC=CCCC[C@@](C)(C(N)=O)NC(=O)[C@H](CC(C)C)NC(=O)[C@H](CC(C)C)NC(=O)[C@H](Cc2ccccc2)NC(=O)[C@H](Cc2c[nH]c3ccccc23)NC(=O)[C@H](Cc2ccc(O)cc2)NC(=O)[C@H](CCC(=O)O)NC1=O)[C@@H](C)O
notes: also called Ac-TSFXEYWFLLX-NH2
Kd (Mdm2 (1-125) [4]): 175 nM | Kd (Mdm4 (1-125) [5]): 394 nM

B4: sMTide-06 (peptide)
peptide: Ac-TSF[R8]EYWYLL[S5]-NH2
modifications: staple 4-11
SMILES: CC(=O)N[C@H](C(=O)N[C@@H](CO)C(=O)N[C@@H](Cc1ccccc1)C(=O)N[C@]1(C)CCCCCCC=CCCC[C@@](C)(C(N)=O)NC(=O)[C@H](CC(C)C)NC(=O)[C@H](CC(C)C)NC(=O)[C@H](Cc2ccc(O)cc2)NC(=O)[C@H](Cc2c[nH]c3ccccc23)NC(=O)[C@H](Cc2ccc(O)cc2)NC(=O)[C@H](CCC(=O)O)NC1=O)[C@@H](C)O
notes: also called Ac-TSFXEYWYLLX-NH2
Kd (Mdm2 (1-125) [4]): 128 nM | Kd (Mdm4 (1-125) [5]): 328 nM

B5: sMTide-02B (peptide)
peptide: Ac-TSF[R8]EY[dTrp(6-Cl)]ALL[S5]-NH2
modifications: staple 4-11
notes: also called Ac-TSFXEY(D-6-Cl)WALLX-NH2; D-isomer
Kd (Mdm4 (1-125) [7]): 2160 nM

B6: sMTide-02A (peptide)
peptide: Ac-TSF[R8]EY[Trp(6-Cl)]ALL[S5]-NH2
modifications: staple 4-11
notes: also called Ac-TSFXEY(L-6-Cl)WALLX-NH2; L-isomer
Kd (Mdm4 (1-125) [7]): 1360 nM
